The target in the assay is soluble CD16A (sCD16A) (UniProt P08637). The assay can be described thus: SPR (BIAcore 1000); receptor amine-coupled (~1000 RU), scFv as analyte; units not printed (koff/kon implies nM). In general terms: In SPR one partner is held on a chip, and binding of the other changes the refractive index at the surface.

For 1 substance, Kd results are on record in patent US20070004909A1.

soluble CD16A (sCD16A), sequence (P08637 17-208 limits assumed): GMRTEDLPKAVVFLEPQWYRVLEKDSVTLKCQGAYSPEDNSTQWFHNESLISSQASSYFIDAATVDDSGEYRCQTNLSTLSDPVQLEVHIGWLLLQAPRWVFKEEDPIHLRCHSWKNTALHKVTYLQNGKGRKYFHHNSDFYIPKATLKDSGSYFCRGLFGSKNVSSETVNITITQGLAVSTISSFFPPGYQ

h3G8 scFv gave a Kd of 38.7 nM. This lies in the double-digit nanomolar range.

The Kd is the free concentration of one partner at which half of the binding sites on the other are occupied at equilibrium, for simple one-to-one binding.
